Data reported in publication PMC7469494 (Autophagy, 2019).

How the values were obtained:
[1] = biological target: T1, tVac8 (Vac8 construct comprising residues 10–515) (S. cerevisiae, UniProt P39968 10-515); test: AUC
T1 sequence (looked up): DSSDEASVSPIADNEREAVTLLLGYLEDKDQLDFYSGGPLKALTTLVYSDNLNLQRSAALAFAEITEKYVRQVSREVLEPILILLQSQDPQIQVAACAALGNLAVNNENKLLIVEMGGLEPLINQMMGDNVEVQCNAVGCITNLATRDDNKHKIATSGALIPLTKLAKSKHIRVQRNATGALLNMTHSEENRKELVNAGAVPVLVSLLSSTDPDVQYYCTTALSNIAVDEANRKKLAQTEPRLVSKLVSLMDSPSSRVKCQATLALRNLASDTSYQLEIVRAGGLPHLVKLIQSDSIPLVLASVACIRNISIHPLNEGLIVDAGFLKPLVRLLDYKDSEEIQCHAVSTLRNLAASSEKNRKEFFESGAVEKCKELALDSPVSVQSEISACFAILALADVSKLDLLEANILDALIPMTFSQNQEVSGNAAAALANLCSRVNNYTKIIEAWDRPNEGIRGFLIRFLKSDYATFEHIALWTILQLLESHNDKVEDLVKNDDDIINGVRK

Vac8[40–515] = biological target: T2, Vac8[40–515] (S. cerevisiae, UniProt P39968 40-515); test: SEC
T2 sequence (looked up): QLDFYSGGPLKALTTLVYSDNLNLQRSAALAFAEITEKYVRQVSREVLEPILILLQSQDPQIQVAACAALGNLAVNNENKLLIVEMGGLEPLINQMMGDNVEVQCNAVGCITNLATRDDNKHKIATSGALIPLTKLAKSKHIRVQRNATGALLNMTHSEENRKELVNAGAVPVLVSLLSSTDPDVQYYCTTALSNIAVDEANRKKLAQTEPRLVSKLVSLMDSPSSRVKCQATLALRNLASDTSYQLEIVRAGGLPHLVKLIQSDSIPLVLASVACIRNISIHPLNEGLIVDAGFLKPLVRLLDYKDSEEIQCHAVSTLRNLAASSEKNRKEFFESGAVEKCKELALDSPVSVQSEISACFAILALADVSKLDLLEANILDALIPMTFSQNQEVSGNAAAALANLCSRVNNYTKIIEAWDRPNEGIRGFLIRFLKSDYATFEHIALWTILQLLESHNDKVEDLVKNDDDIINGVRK

Vac8[40–515]^A51R = biological target: T3, Vac8[40–515]^A51R (S. cerevisiae, UniProt P39968 40-515, A51R); test: SEC
T3 sequence (looked up): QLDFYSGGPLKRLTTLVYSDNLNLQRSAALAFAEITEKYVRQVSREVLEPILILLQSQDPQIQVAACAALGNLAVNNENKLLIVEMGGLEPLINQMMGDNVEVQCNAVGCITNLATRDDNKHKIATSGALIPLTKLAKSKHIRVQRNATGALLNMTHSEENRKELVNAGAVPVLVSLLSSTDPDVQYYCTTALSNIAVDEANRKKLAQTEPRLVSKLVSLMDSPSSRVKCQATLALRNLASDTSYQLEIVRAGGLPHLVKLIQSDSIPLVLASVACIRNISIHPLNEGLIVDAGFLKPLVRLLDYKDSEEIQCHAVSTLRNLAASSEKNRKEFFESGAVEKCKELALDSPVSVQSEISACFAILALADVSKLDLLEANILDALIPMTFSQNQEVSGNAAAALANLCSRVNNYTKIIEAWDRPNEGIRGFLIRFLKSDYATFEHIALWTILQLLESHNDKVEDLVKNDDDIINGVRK

Vac8[40–515]^N62R = biological target: T4, Vac8[40–515]^N62R (S. cerevisiae, UniProt P39968 40-515, N62R); test: SEC
T4 sequence (looked up): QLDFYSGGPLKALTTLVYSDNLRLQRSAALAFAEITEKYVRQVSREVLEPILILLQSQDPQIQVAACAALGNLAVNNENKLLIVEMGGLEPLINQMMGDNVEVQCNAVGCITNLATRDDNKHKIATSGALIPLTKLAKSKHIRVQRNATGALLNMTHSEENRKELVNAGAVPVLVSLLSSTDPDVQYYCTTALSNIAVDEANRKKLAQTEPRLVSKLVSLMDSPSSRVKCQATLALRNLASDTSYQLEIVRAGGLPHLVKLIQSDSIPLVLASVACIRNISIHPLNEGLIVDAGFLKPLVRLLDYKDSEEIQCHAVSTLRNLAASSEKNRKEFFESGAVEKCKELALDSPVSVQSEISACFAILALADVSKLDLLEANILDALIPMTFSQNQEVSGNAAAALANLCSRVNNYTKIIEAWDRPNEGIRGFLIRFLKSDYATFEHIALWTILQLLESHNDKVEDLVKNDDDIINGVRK

Vac8[40–515]^N60R,N62R = biological target: T5, Vac8[40–515]^N60R,N62R (S. cerevisiae, UniProt P39968 40-515, N60R | N62R); test: SEC
T5 sequence (looked up): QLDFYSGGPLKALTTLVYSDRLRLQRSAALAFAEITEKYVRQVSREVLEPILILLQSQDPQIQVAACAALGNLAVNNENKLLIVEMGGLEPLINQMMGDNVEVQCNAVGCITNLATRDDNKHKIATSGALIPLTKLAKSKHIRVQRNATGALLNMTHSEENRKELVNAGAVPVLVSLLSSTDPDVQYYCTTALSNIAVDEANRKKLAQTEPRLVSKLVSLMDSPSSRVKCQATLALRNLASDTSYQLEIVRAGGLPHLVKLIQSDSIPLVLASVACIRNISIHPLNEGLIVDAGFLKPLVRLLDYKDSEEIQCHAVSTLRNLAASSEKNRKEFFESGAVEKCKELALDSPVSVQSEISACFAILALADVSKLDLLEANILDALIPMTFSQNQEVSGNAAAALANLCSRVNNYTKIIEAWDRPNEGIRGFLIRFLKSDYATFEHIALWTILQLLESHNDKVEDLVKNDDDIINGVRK

binding result [1]: binds
binding result (Vac8[40–515]): binds
binding result (Vac8[40–515]^A51R): binds
binding result (Vac8[40–515]^N62R): binds
binding result (Vac8[40–515]^N60R,N62R): binds
B1: tAtg13 (Atg13 construct comprising residues 567–695) (domain or fragment, S. cerevisiae, UniProt Q06628 567-695, looked up)
chain: GGNSSTSALNSRRNSLDKSSNKQGMSGLPPIFGGESTSYHHDNKIQKYNQLGVEEDDDDENDRLLNQMGNSATKFKSSISPRSIDSISSSFIKSRIPIRQPYHYSQPTTAPFQAQAKFHKPANKLIDNG
